We go through three molecules from US20080132445A1, “Method for Inducing Mammary Epithelial Cell Differentiation” (Garvan Institute of Medical Reserach, priority 2002, published 2008).

In experiment [1] the test system is galanin expression (galanin promoter estrogen response element). Conditions: Howard et al 1997; Kaplan et al 1988; cited from earlier work.
The subject of another experiment is GalR1. As to conditions: stated as known; cited from earlier work.
Experiment [2] deals with milk proteins (WAP, α-casein, β-casein). Nature of the experiment: Western analysis of cultured mammary glands: milk protein expression. It is filed as cell-based, mice. Conditions: western blot. The method, then: (§1) Four week old BALB/c mice were implanted with estrogen, progesterone and cholesterol pellets (Ginsburg and Vonderhaar, 2000). Following nine days of treatment, the whole fourth glands were removed and stretched onto siliconized lens paper and placed into petri dishes containing 2 mL of Waymouths 152/1 medium supplemented with penicillin (100 U/ml), streptomycin (100 μg/ml), gentamycin sulfate (50 μg/ml), 20 mM HEPES, insulin (5 μg/ml), hydrocortisone (100 ng/ml) and aldosterone (100 ng/ml) (basal medium, IAH) to monitor ductal side branching, with and without 100 nM rat galanin (Auspep). To assess lobuloalveolar development ovine PRL (Sigma, 1 μg/ml) was added to the basal medium with or without galanin. Glands were maintained in a tri-gas incubator at 50% O2 and 5% CO2 in air. Medium was changed after 24 hr, then every second day for 6 days before morphology and histology were assessed.
(§2) Following RNA extraction from mammary glands using TRIZOL Reagent (Gibco BRL), protein was extracted following the manufacturer's instructions. […] Specific binding was detected using Horseradish peroxidase conjugated secondary antibodies (Amersham Biosciences) with Chemiluminescence Reagent (PerkinElmer) and Biomax Light Film (Eastman Kodak Company).

A further experiment has as its system ERK1/2. The experiment in a line: Western analysis of cultured mammary glands: MAP kinase pathway. Type of experiment: cell-based, mice. As to conditions: western blot. The procedure:
as §1, §2
(In general: In western blotting, separated proteins are transferred to a membrane and probed.)

Another experiment deals with Akt. The experiment in a line: Western analysis of cultured mammary glands: PI3 kinase pathway. Type of experiment: cell-based, mice. Conditions: western blot. The procedure:
as §1
Following RNA extraction from mammary glands using TRIZOL Reagent (Gibco BRL), protein was extracted following the manufacturer's instructions. Protein was separated using SDS-PAGE (Bio-Rad Laboratories), transferred to PVDF (Millipore) and blocked overnight with 5% skim milk powder, 2% fetal bovine serum, 50 mM sodium phosphate, 50 mM NaCl and 0.1% Tween 20. Membranes were incubated with one of the following primary antibodies: α-milk protein (Accurate Chemical & Scientific Corporation), α-STAT5a (Upstate Biotech), α-phospho-STAT5, α-phospho-Erk1/2, α-Erk2, α-phospho-Akt (S473), α-phospho-Akt (T308), α-Akt (Cell Signaling Technology) or α-β-Actin (Sigma). 20 μg of protein was loaded per lane except for α-milk protein were 400 ng of protein was loaded. Specific binding was detected using Horseradish peroxidase conjugated secondary antibodies (Amersham Biosciences) with Chemiluminescence Reagent (PerkinElmer) and Biomax Light Film (Eastman Kodak Company).

Experiment [3] has as its system Gal−/− mice mammary gland. Nature of the experiment: Prl treatment of Gal−/− mice throughout pregnancy (mini-osmotic pump). Type of experiment: in vivo, mouse. The procedure:
(§3) Mammary whole mounts were made by spreading the gland on a glass slide and fixing in 10% formalin solution. Glands were defatted in acetone before carmine alum (0.2% carmine, 0.5% aluminium sulfate) staining overnight. The whole mount was dehydrated using a graded ethanol series followed by xylene treatment for 60 min and storage and photography in methyl salicylate. Morphometric analysis was performed by counting the number of side branches, alveolar buds or lobuloalveoli per mammary gland (n=5) for mammary gland cultures or from 4 representative fields of view from whole 4th inguinal glands.
On the morning of the observation of a vaginal plug, 6-8 week old mice were implanted with a 0.25 μl per hour, 28 day mini-osmotic pump (Alzet) containing unmodified Prl prepared as described (23). Either 0.6 or 1.2 μg were delivered per 24 hr. On the first day post-partum maternal behaviour of mothers was observed, pups were examined for the presence of milk and glands were taken for histological analysis.
(§4) Quantitative PCR was performed using LightCycler technology (Roche). Primers were designed on the basis of mismatch to other genes for WDMN1, β-Actin, WAP, β-casein, […], Elf5, Glycam1, IGF1, GHR, SPOT 14 and PRLR. PCR reactions were performed in 10 μL volume with 1 μL of cDNA, 5 pmoles of each primer and FastStart DNA Master SYBR Green I enzyme mix (Roche) as per manufacturers instructions. Relative quantitation of the product was performed by comparing the crossing points of different samples normalised to an internal control (β-Actin). Each cycle in the linear phase of the reaction corresponds to a two fold difference in transcript levels between samples. Each reaction was performed in triplicate using pooled RNA from the 4-6 mammary glands or the treatment groups utilised for transcript profiling.

For experiment [4], the system named is mammary gland gene expression. The experiment in a line: Transcript profiling of cultured mammary glands (Affymetrix MGU74Av2 GeneChips). It is filed as cell-based, mice. The procedure: as §1
Total RNA was extracted using TRIZOL Reagent (Gibco BRL), purified using RNeasy Mini Kit (QIAGEN), cDNA synthesis performed using Superscript II (Invitrogen Life Technologies), synthesis of Biotin-labeled cRNA performed using BioArray HighYield RNA Transcript labeling Kit (Enzo Diagnostics) and hybridised to Affymetrix MGU74v2 GeneChips overnight as per manufacturers instructions. Arrays were performed in duplicate using 4-6 glands per treatment group from two separate replicate experiments. Analysis was performed using the Affymetrix GeneChip v5 software (MAS 5), with treatment groups compared back to IAH treatment as the baseline comparison. Principal Components Analysis was performed using JMP (SAS Institute). Venn diagrams where formed by selecting genes called increasing or decreasing by MAS 5 with a fold change greater then 1.7 compared to IAH. These groups were further restricted by excluding genes with a magnitude fold change >1.2 induced by the other treatments.
as §4

Another experiment concerns STAT5. The experiment in a line: Western analysis of cultured mammary glands: JAK/STAT pathway. Conditions: western blot. It is filed as cell-based, mice. The procedure: as §1, §2
The test system of experiment [5] is mammary glands (lobuloalveolar development). Nature of the experiment: Mammary gland whole organ culture, morphology and histology. Type of experiment: cell-based, BALB/c mice. The procedure: as §3
as §1, with “To assess lobuloalveolar development ovine PRL (Sigma, 1 μg/ml) was added to the basal medium with or without galanin. Glands were maintained in a tri-gas incubator at 50% O2 and 5% CO2 in air.” left out

As for estrogen, the “increase of galanin expression” value in [1] is recorded as “about 4000 fold”.

Take “GALP (1-60): 60 amino acid neuropeptide, galanin-like peptide, binds GalR1 and GalR2 (APAHRGRGGWTLNSAGYLLGPVLHLPQMGDQDGKRETALEILDLWKAIDGLPYSHPPQPS; Galanin-like peptide; UniProt Q9UBC7 25-84, looked up)”: in the experiment on GalR1, the “affinity for GalR1” value is “poor affinity”.

B1: PRL: prolactin; ovine PRL (Sigma, 1 μg/ml) in culture, unmodified Prl by mini-osmotic pump in mice (protein, UniProt P01240 31-229, looked up)
Prolactin: TPVCPNGPGNCQVSLRDLFDRAVMVSHYIHNLSSEMFNEFDKRYAQGKGFITMALNSCHTSSLPTPEDKEQAQQTHHEVLMSLILGLLRSWNDPLYHLVTEVRGMKGVPDAILSRAIEIEEENKRLLEGMEMIFGQVIPGAKETEPYPVWSGLPSLQTKDEDARHSAFYNLLHCLRRDSSKIDTYLKLLNCRIIYNNNC
As for B1, the “milk protein synthesis (WAP, α and β casein)” value in [2] is reported as “synthesised”. For the same molecule, in the experiment with ERK1/2, the “phosphorylated ERK / sustained activation of the MAP kinase pathway” value was “dramatically increased” and the “total ERK1/2” value was “decreased”. In the experiment on Akt, the “mobility of Akt” value was “decreased mobility”; the “phosphorylation of T308 and S473 residues of Akt” value is “did not increase”; the “total Akt” value is “no increase”. The “lactation and pup survival” value in [3] (0.6 or 1.2 μg PRL per 24 hours by mini osmotic pump throughout pregnancy) was “restored lactation and allowed pup survival”. In addition, the “lobuloalveolar density (mammary gland whole mounts)” value in experiment [3] (PRL throughout pregnancy, 1st day post-partum) was “partial rescue”. The Keratin18 levels entry in [3] (PRL throughout pregnancy, quantitative RT-PCR) was “unchanged”. The “milk protein gene expression (WDMN1, β-casein, WAP), lobuloalveolar differentiation” value in experiment [3] (PRL throughout pregnancy, quantitative RT-PCR, 1st day post-partum) is given as “did not even partially rescue”. In addition, in experiment [4] (cultured mammary glands), the PDGFRA expression result is “prevents galanin from reducing” and the “regulation of galanin or its receptors” value was “did not regulate”. Further, in experiment [4] (fold change 1.7 versus IAH), the “genes regulated that are not regulated by the other hormone (unique transcriptional influence)” value amounted to 160 genes. The “genes that changed expression in response to all three treatments” value in experiment [4] (fold change 1.7 versus IAH, 40% of all regulated genes) was 136 genes. In addition, the “genes regulated regardless of the presence of the other hormone” value in experiment [4] (fold change greater than 1.7 versus IAH) is recorded as 154 genes. In addition, the “genes regulated by the other hormone whose regulation is antagonised” value in experiment [4] (prolactin against galanin's unique genes, galanin against 160 prolactin regulated genes) is listed as 30/31. Also, in the experiment on STAT5, the “phosphorylated STAT5 / activation of the JAK/STAT pathway” value was “dramatic increase” and the “total STAT5a” value was “increase”. The “number of lobuloalveoli per gland” value in experiment [5] (IAH medium, PRL 1 μg/ml with or without 100 nM galanin) is listed as 8.6±2.1. For the same molecule, in experiment [5] (added to IAH medium, 100 nM galanin or ovine PRL 1 μg/ml, 6 days culture), the “ductal or lobuloalveolar development by quantitative morphology and histology” value was “lobuloalveolar development was observed”.
